This data set deals with MS2 coat protein. Nature of the data set: apparent KD of MS2 coat protein; designed switch direction (-1 OFF switch, 1 ON switch): 1; higher = weaker reporter binding. In short, it runs like this: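 Apparent KD, taken as the median over clusters for each design, was obtained by curve-fitting normalised cluster fluorescence. Designed RNA switches had been transcribed on Illumina chips by stalled E. coli RNA polymerase and titrated with SNAP-549-labelled MS2 coat protein, doubling from 0.7 or 1.5 nM to 3 µM.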

The mark [1] stands for this setting: input ligand: microRNA oligo, concentration not stated.
Where [2] appears, read: Eterna round: R95, input ligand: FMN 200 uM.
Where [3] appears, read: Eterna round: R95, input ligand: microRNA oligo, concentration not stated.
[4] abbreviates: Eterna round: R95, input ligand: none.

As to “CGGGUGGUUCUAGGAUAUCUAGGAUAUGGACGAGGAUUACCCGAGCAGCAUUAGCGCACCAGAGGAGAGAAGGAGAGUGAUGCG [pwkr ssNG2 2F5 2FMN.16] (Eterna round: R96, puzzle: Same State NG 2)”, the “apparent KD of MS2 coat protein” value amounted to 251 nM (input ligand: FMN 200 uM), 3.25 nM under setting [1] and 53.3 nM (input ligand: none).
Consider “CGUACACAUGAGGAUCACCCAUGUCAGAUUUGGUCAGGAUAUGGGCGGCAUCCGCUAUUGCCAGAAGGGACUGUUG [JR_SS001_Sub703] (Eterna round: R96, puzzle: Same State 1)”, for which the “apparent KD of MS2 coat protein” value reads like this: (input ligand: FMN 200 uM) 156 nM; under setting [1], 43.4 nM; (input ligand: none) 64.8 nM.
For “CGUAGGUAGCUGGAGGAUAUCUGAGUGGUAACAUGAGGAUCACCCAUGUGAUGUGAGGAACAUGAGGAGAAGGCUAGCUGCCUGC [JL-ss2-3.13 JL mod] (puzzle: Same State 2)”, the “apparent KD of MS2 coat protein” value is, setting by setting: under setting [2], 21.4 nM; under setting [3], 42.2 nM; under setting [4], 43.5 nM.
The like results for “CGUCCGGCCUGUGCUGGCCGGUAGCAUGUACAUGAGGAUCACCCAUGUUCAUGUGCAGGCUUUUUGCUCGUCUUGUG [salish99_mir208a_r3_007] (puzzle: Sensor for hsa-mir-208a)” were, in that order, 34 nM, 12.3 nM and 33.8 nM.
On to “CGUCCGGCCUGUGCUGGCCGGUAGCUUGUACAUGAGGAUCACCCAUGUUCAUGUGCUGGCUUUUUGCUCGUCUUGUG [salish99_mir208a_017] (puzzle: Sensor for hsa-mir-208a)”, for which the “apparent KD of MS2 coat protein” value came to 283 nM under setting [2], 27.2 nM under setting [3] and 419 nM under setting [4].
For “CGUCGCUGUCGAGAGGAUAUGCGGUGAUGGACAUGAGGAUCACCCAUGUUAGCGAUAGCAUCACGGUAGAAGGCUCUUACGACUG [Soteed Omei mod 24] (puzzle: Same State 2)” the same measures were 12.6 nM, 20 nM and 26.8 nM.
For the sequence “CGUUCUUACUCAGGACGGAGAGUAGAGGAACAUGAGGAUCACCCAUGUAUGAGCUUUUUGCUCGUGAUUAACAGUAG [JR_SHM208a_Sub013] (Eterna round: R96, puzzle: Sensor for hsa-mir-208a)”, the “apparent KD of MS2 coat protein” value (input ligand: FMN 200 uM) is 103 nM, the “apparent KD of MS2 coat protein” value under setting [1] was found to be 55.5 nM and the “apparent KD of MS2 coat protein” value (input ligand: none) came out at 86.8 nM.
As for “CGUUCUUACUCAGGACGGAGAGUAGAGGAACAUGAGGAUCACCCAUGUAUGAGCUUUUUGCUCGUGAUUAACAGUAG [JR_SHM208a_Sub013] (puzzle: Sensor for hsa-mir-208a)”, the “apparent KD of MS2 coat protein” value reads like this: under setting [2], 62.7 nM; under setting [3], 95.4 nM; under setting [4], 122 nM.
The like results for “CUAAAACAUGAGGAUCACCCAUGUCAACAAAGUCGAGGAUAUGGGCAAAUAAAAUAAGAACCAGAAGGCGAAUAAU [salish99_SS1_r3_012] (puzzle: Same State 1)” were, in that order, 42.3 nM, 422 nM and 485 nM.
The like results for “CUCAAAACAAGCUGCAGUGUUCGUCUUUAACAUGAGGAUCACCCAUGUAGUAGCCCGGUGGAAGCGCUCGGGCCACC [Antetera] (puzzle: Sensor for hsa-mir-208a)” were, in that order, 44.3 nM, 27.8 nM and 43.9 nM.
The like results for “CUCAAAACAAGUUGCAGUGUUCGUCUUUAACAUGAGGAUCACCCAUGUAAUAACCCGGUGGAAGCGCUCGGGCCACC [Gereerle] (puzzle: Sensor for hsa-mir-208a)” were, in that order, 25.7 nM, 15.5 nM and 26.1 nM.
For “CUCAAACAUGAGGAUCACCCAUGUGUUGUCAUGGGAGGAUAUCCAAGUUCGUUGUAGUCGGGAGAAGGCCUAUGUC [× ×•×ª×• ×ž×“×™× ×” × ×—×ª-12] (puzzle: Same State 1)”, the “apparent KD of MS2 coat protein” value under setting [3] is 139 nM.
On to “CUCAAACAUGAGGAUCACCCAUGUUUUUUCAUGGGAGGAUAUCUAAGUUCAUUAUAUUCAGGAGAAGGCCUAUCUC [× ×•×ª×• ×ž×“×™× ×” × ×—×ª-06] (puzzle: Same State 1)”, for which the “apparent KD of MS2 coat protein” value under setting [2] was 54.5 nM, the “apparent KD of MS2 coat protein” value under setting [3] came to 36 nM and the “apparent KD of MS2 coat protein” value under setting [4] came to 30.3 nM.
The like results for “CUCCCAUGUGCACAGGAUAUGCCGGGAUGCACAUGAGGAUCACCCAUGUAAUCCUGAAAAUAAAAGCAGAAGGGUGAUCAUGGGU [Teriqula] (puzzle: Same State 2)” were, in that order, 7.24 nM, 16.5 nM and 13.2 nM.
On to “CUCCCUUGGGUAGGAUAUCUAGGAUAUGGGAAAGACUAAGUCUGUAGGUCACCUAACCCAGAUGGAGAGAAGGACCCAACACUC [pwkr ssNG2 2FMN + F9.39] (Eterna round: R96, puzzle: Same State NG 2)”, for which the “apparent KD of MS2 coat protein” value runs as follows: (input ligand: FMN 200 uM) 3.66 nM; under setting [1], 33.3 nM; (input ligand: none) 15.8 nM.
For “CUGAAAUGUCAAGGAUAUCACGUCGAUUAGACGUGAGAAGGUGAUCUACACAUGAGGAUCACCCAUGUGUUACGUGGGAGUCAG [Brourd's SSNG1/1-A2 mod 18] (Eterna round: R96, puzzle: Same State NG 1)” the same measures were 82.1 nM, 104 nM and 171 nM.
The like results for “CUGACUUGUCAAGGAUAUCACGUCGAUUAGACGUGAGAAGGUGAUCUACACAUGAGGAUCACCCAUGUGUUACGUGGGAGUCAG [Brourd's SSNG1/1-A2 mod 20] (Eterna round: R96, puzzle: Same State NG 1)” were, in that order, 34.8 nM, 69 nM and 94.7 nM.
For “CUGAGAAGUCAAGGAUAUCACGUCGAUUAGACGUGAGAAGGUGAUCAGUACAUGAGGAUCACCCAUGUGUUACAUGGAACUCAG [Brourd's SSNG1/1-A2 mod 8] (Eterna round: R96, puzzle: Same State NG 1)” the same measures were 1660 nM, 367 nM and 1110 nM.
For “CUGAGAAGUCAAGGAUAUCACGUCGAUUAGACGUGAGAAGGUGAUCAUUACAUGAGGAUCACCCAUGUGUUACAUGGAGCUCAG [Brourd's SSNG1/1-A2 mod 6] (Eterna round: R96, puzzle: Same State NG 1)”, the “apparent KD of MS2 coat protein” value stood at 703 nM (input ligand: FMN 200 uM), 124 nM under setting [1] and 938 nM (input ligand: none).
For “CUGAGAUGUCAAGGAUAUGCUACCGUUUCGGUAGCAGAAGGUGAUCACAUGAGGAUCACCCAUGUAUGCAUGCGUGAGCGUGCU [JL SSNG1 3.59] (Eterna round: R96, puzzle: Same State NG 1)” the same measures were 234 nM, 36.9 nM and 62 nM.
The like results for “CUGAGCGAUCAAGGAUAUCACGUCGAAUAGACGUGAGAAGGUGAUCAUAACAUGAGGAUCACCCAUGUAUUACAUGAAGCUCAG [SSNG1/2-A1] (Eterna round: R96, puzzle: Same State NG 1)” were, in that order, 231 nM, 536 nM and 2240 nM.
